According to PMC10786891, “Massively parallel profiling of RNA-targeting CRISPR-Cas13d”:
Substitutions are numbered along the chain they refer to. Numbers in names are those of the source.

T1: EsCas13d, nuclease-dead (Eubacterium siraeum, UniProt B0MS50, R295A;H300A;R849A;H854A)
T1 sequence: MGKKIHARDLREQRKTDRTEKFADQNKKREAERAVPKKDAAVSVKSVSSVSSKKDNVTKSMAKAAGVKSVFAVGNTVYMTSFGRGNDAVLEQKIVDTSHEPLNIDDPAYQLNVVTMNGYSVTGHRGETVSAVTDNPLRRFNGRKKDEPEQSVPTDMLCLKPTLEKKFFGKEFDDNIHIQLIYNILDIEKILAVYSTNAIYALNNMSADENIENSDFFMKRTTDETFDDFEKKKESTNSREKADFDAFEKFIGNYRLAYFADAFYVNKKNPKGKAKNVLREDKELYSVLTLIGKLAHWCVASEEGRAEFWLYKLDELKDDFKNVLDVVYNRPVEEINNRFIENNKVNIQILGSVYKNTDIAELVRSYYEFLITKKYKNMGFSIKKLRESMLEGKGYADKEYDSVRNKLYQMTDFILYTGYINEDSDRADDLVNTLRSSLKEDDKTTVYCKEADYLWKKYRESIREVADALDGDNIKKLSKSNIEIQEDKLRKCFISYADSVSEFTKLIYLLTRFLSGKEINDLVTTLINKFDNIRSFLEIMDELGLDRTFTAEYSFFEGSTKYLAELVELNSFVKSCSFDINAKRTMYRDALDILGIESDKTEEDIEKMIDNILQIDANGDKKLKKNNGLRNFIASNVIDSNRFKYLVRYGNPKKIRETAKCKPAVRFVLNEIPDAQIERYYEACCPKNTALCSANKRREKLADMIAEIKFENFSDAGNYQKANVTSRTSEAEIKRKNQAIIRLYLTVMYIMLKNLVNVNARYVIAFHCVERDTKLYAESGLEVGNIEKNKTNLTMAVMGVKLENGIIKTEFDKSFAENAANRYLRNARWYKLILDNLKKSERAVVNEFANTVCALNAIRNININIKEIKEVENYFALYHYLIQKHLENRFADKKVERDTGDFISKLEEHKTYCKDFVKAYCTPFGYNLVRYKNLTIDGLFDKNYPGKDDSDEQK

B1: target 1 C2G,A18U (mixed)
RNA 1: CACCCGUGCAAAAAUGCAGGGGUCUAAAACUGAGCGGAUAACCUCUCUAUGG
RNA 2: GGGAAUGGAUCCACAUCUACGAAUUCGUACCAUUGAGAGGUUAUCCGCUGACCGAGAUCGGAAGAGCACACGU
B2: target 1 insC 3' of 22,insG 3' of 19 (mixed)
RNA 1: B1 RNA 1
RNA 2: GGGAAUGGAUCCACAUCUACGAAUUCGUACCCAUGAGAGAGGUUAUCCGCUCACCGAGAUCGGAAGAGCACACGU
B3: target 1 A1U,G17U (mixed)
RNA 1: B1 RNA 1
RNA 2: B1 RNA 2 with U34A, G35U, G50C, A51U
B4: target 1 insA 3' of 22,insA 3' of 19 (mixed)
RNA 1: B1 RNA 1
RNA 2: B2 RNA 2 with C31A, G35A
B5: target 3 insA 3' of 4,insC 3' of 3 (mixed)
RNA 1: CACCCGUGCAAAAUUGCAGGGGUCUAAAACGACCUGAAUAUUUCAGAUCAAA
RNA 2: GGGAAUGGAUCCACAUCUACGAAUUCGUUUUUGAUCUGAAAUAUUCAGAGCUCUGCAGAUCGGAAGAGCACACGU
B6: target 3 insA 3' of 21,insU 3' of 6 (mixed)
RNA 1: B5 RNA 1
RNA 2: GGGAAUGGAUCCACAUCUACGAAUUCGUUUUAUGAUCUGAAAUAUUCUAGGUCUGCAGAUCGGAAGAGCACACGU
B7: target 3 U7G,U8G (mixed)
RNA 1: B5 RNA 1
RNA 2: GGGAAUGGAUCCACAUCUACGAAUUCGUUUUUGAUCUGAAAUAGGCAGGUCUGCAGAUCGGAAGAGCACACGU
B8: target 3 U2G,U22A (mixed)
RNA 1: B5 RNA 1
RNA 2: B7 RNA 2 with U30A, G44U, G45U, U50G
B9: target 3 U8A,U22A (mixed)
RNA 1: B5 RNA 1
RNA 2: B7 RNA 2 with U30A, G44A, G45U
B10: target 3 insU 3' of 13,insG 3' of 6 (mixed)
RNA 1: B5 RNA 1
RNA 2: B5 RNA 2 with A40U, U42A, A43U, U44A, C46U, A47C, C51G
B11: target 3 insU 3' of 11,insA 3' of 7 (mixed)
RNA 1: B5 RNA 1
RNA 2: B5 RNA 2 with A43U, U44A, C46U, G48C, C51G
B12: target 3 insG 3' of 11,insU 3' of 3 (mixed)
RNA 1: B5 RNA 1
RNA 2: B5 RNA 2 with U42G, A43U, U44A, C46U, A47C, G48A, A49G, C51U
B13: target 3 insU 3' of 22,insU 3' of 1 (mixed)
RNA 1: B5 RNA 1
RNA 2: B6 RNA 2 with A32U, U48A, A49G, G51U, U52C, C53U
B14: target 3 insA 3' of 21,insG 3' of 5 (mixed)
RNA 1: B5 RNA 1
RNA 2: B6 RNA 2 with U48A, A49G
B15: target 3 insA 3' of 3 (mixed)
RNA 1: B5 RNA 1
RNA 2: GGGAAUGGAUCCACAUCUACGAAUUCGUUUUUGAUCUGAAAUAUUCAGGAUCUGCAGAUCGGAAGAGCACACGU
B16: target 3 U2G,G14A (mixed)
RNA 1: B5 RNA 1
RNA 2: B7 RNA 2 with G38A, G44U, G45U, U50G
B17: target 3 insU 3' of 22,insC 3' of 2 (mixed)
RNA 1: B5 RNA 1
RNA 2: B6 RNA 2 with A32U, U48A, A49G, G51U, U52C
B18: target 3 insA 3' of 8,insC 3' of 7 (mixed)
RNA 1: B5 RNA 1
RNA 2: B5 RNA 2 with U45A, C46U, A47C, G48C, C51G
B19: target 3 insG 3' of 9,insC 3' of 4 (mixed)
RNA 1: B5 RNA 1
RNA 2: B5 RNA 2 with U44G, C46U, A47C, G48A, A49G, G50C, C51G
B20: target 3 insA 3' of 22,insA 3' of 6 (mixed)
RNA 1: B5 RNA 1
RNA 2: B6 RNA 2 with U31A, A32U, U48A
B21: target 3 G3C,U22C (mixed)
RNA 1: B5 RNA 1
RNA 2: B7 RNA 2 with U30C, G44U, G45U, G49C
B22: target 3 insU 3' of 6,insG 3' of 2 (mixed)
RNA 1: B5 RNA 1
RNA 2: B5 RNA 2 with A47U, G48A, A49G, C51U, U52G
B23: target 3 G3U,U22C (mixed)
RNA 1: B5 RNA 1
RNA 2: B7 RNA 2 with U30C, G44U, G45U, G49U
B24: target 3 G3U,A18G (mixed)
RNA 1: B5 RNA 1
RNA 2: B7 RNA 2 with A34G, G44U, G45U, G49U
B25: target 3 insG 3' of 7,insC 3' of 5 (mixed)
RNA 1: B5 RNA 1
RNA 2: B5 RNA 2 with C46G, A47C, G48A, A49C, C51G
B26: target 3 insU 3' of 5,insU 3' of 3 (mixed)
RNA 1: B5 RNA 1
RNA 2: B5 RNA 2 with G48U, A49G, C51U
B27: target 3 insA 3' of 6,insC 3' of 2 (mixed)
RNA 1: B5 RNA 1
RNA 2: B5 RNA 2 with G48A, A49G, C51U, U52C
B28: target 3 A5U,U7G (mixed)
RNA 1: B5 RNA 1
RNA 2: B7 RNA 2 with G44U, A47U

The binders below were run against T1, EsCas13d, nuclease-dead (assay: crRNA (strand 1, pre-loaded); Mg2+; 40 mM Tris-HCl pH 7.5, 150 mM NaCl, 6 mM MgCl2, 1 mM DTT, 0.1% Tween-20, 0.2 mg/ml BSA; 25 C; 10 min per concentration, then washed). Conditions: tags: His6-TwinStrep-SUMO cleaved; N-terminal SNAP kept (SNAP-Surface 488); label: 3' end held by stalled T7 RNA polymerase.

Binder	Kd [nM]
B1	17 ± 1.7
B2	64 ± 15
B3	18.8 ± 1.5
B4	38 ± 4
B5	79.5 ± 24.5
B6	84 ± 25.5
B7	48.5 ± 9
B8	25.6 ± 2.5
B9	110 ± 38.5
B10	88 ± 24.5
B11	100 ± 20.5
B12	96 ± 21.5
B13	77.5 ± 17.5
B14	71 ± 33.5
B15	25.1 ± 3.45
B16	106 ± 42
B17	76.5 ± 24.5
B18	67.5 ± 8
B19	~102
B20	11.1 ± 0.85
B21	28 ± 4
B22	28 ± 5
B23	28.4 ± 5.25
B24	34.4 ± 3.25
B25	24.4 ± 2.85
B26	4.35 ± 0.375
B27	35 ± 9
B28	60.5 ± 7.5
